Reference: patent US20100292083A1 (Ablynx, published 2010)

T1: human IL6R (human, UniProt P08887 20-358, limits assumed)
T1 construct: Antigen of the Biacore experiments
T1 sequence (looked up): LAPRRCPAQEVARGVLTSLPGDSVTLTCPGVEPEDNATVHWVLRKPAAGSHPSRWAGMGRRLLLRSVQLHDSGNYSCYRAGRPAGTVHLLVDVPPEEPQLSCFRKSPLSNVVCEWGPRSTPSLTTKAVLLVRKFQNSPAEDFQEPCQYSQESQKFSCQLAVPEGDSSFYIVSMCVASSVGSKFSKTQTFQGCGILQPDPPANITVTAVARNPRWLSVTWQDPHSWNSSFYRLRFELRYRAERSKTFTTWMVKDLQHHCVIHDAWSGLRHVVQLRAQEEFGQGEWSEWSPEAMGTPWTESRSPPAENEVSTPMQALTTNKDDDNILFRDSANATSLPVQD

B1: IL6R65PMP10A11 (VHH)
VHH: EVQLVESGGGLVQPGGSLRLSCAASGSIFKVNAMGWYRQAPGKGRELVAGIISGGSTNYADSVKGRFTISRDNAKNTLYLQMNSLRPEDTAVYYCAFIASNSEYDLGRRFWGQGTLVTVSS
notes: CDR3 library clone
B2: IL6R65PMP11E5 (VHH)
VHH: EVQLVESGGGLVQPGGSLRLSCAASGSTFRINIMAWYRQAPGKGRELVAGVITSGNTTYADSVKGRFTISRDNAKNTLYLQMNSLRPEDTAVYYCAFVTTNSDYDLGRDYWGQGTLVTVSS
B3: IL6R65PMP11D6 (VHH)
VHH: EVQLVESGGGLVQPGGSLRLSCAASGTTFKINVMAWYRQAPGKGRELVAAIISGGSTPYADSVKGRFTISRDNAKNTLYLQMNSLRPEDTAVYYCAFVTTNSDYDLGRDYWGQGTLVTVSS
B4: IL6R65PMP11E2 (VHH)
VHH: EVQLVESGGGLVQPGGSLRLSCAASGTTFKVNIMAWYRQAPGKGRELVAAIITGGSTSYADSVKGRFTISRDNAKNTLYLQMNSLRPEDTAVYYCAFVTTNSDYDLGRDYWGQGTLVTVSS
B5: IL6R65PMP11G7 (VHH)
VHH: EVQLVESGGGLVQPGGSLRLSCAASGTIFKLNVMAWYRQAPGKGRELVAAIITGGTTTYADSVKGRFTISRDNAKNTLYLQMNSLRPEDTAVYYCAFVTTNSDYDLGRDYWGQGTLVTVSS
B6: IL6R65PMP11H4 (VHH)
VHH: EVQLVESGGGLVQPGGSLRLSCAASGSTFRLNVMAWYRQAPGKGRELVAAIITNGTTTYADSVKGRFTISRDNAKNTLYLQMNSLRPEDTAVYYCAFVTTNSDYDLGRDYWGQGTLVTVSS
B7: IL6R65PMP12C7 (VHH)
VHH: EVQLVESGGGLVQPGGSLRLSCAASGSVYRINAMGWYRQAPGKGRELVAGLISAGSTNYADSVKGRFTISRDNAKNTLYLQMNSLRPEDTAVYYCAFVTTNSDYDLGRDYWGQGTLVTVSS
B8: IL6R65PMP11G11 (VHH)
VHH: EVQLVESGGGLVQPGGSLRLSCAASGTTFKINVMAWYRQAPGKGRELVAAIITSGTTSYADSVKGRFTISRDNAKNTLYLQMNSLRPEDTAVYYCAFVTTNSDYDLGRDYWGQGTLVTVSS
B9: IL6R65PMP11F10 (VHH)
VHH: EVQLVESGGGLVQPGGSLRLSCAASGTTFKLNIMAWYRQAPGKGRELVAAVINGGTTTYADSVKGRFTISRDNAKNTLYLQMNSLRPEDTAVYYCAFVTTNSDYDLGRDYWGQGTLVTVSS
B10: IL6R65PMP11A12 (VHH)
VHH: EVQLVESGGGLVQPGGSLRLSCAASGTIFRVNVMAWYRQAPGKGRELVAGIITNGSTSYADSVKGRFTISRDNAKNTLYLQMNSLRPEDTAVYYCAFVTTNSDYDLGRDYWGQGTLVTVSS
B11: IL6R65PMP11G10 (VHH)
VHH: EVQLVESGGGLVQPGGSLRLSCAASGSTFRINVMAWYRQAPGKGRELVAGIITNGTTTYADSVKGRFTISRDNAKNTLYLQMNSLRPEDTAVYYCAFVTTNSDYDLGRDYWGQGTLVTVSS
B12: IL6R65PMP11D4 (VHH)
VHH: EVQLVESGGGLVQPGGSLRLSCAASGTTFKINIMAWYRQAPGKGRELVAGVINSGTTNYADSVKGRFTISRDNAKNTLYLQMNSLRPEDTAVYYCAFVTTNSDYDLGRDYWGQGTLVTVSS
B13: IL6R65PMP11C4 (VHH)
VHH: EVQLVESGGGLVQPGGSLRLSCAASGTIFKINVMAWYRQAPGKGRELVAGIITNGSTTYADSVKGRFTISRDNAKNTLYLQMNSLRPEDTAVYYCAFVTTNSDYDLGRDYWGQGTLVTVSS
B14: IL6R65PMP11E4 (VHH)
VHH: EVQLVESGGGLVQPGGSLRLTCAASGTIFKVNVMAWYRQAPGKGRELVAAIITGGSTSYADSVKGRFTISRDNAKNTLYLQMNSLRPEDTAVYYCAFVTTNSDYDLGRDYWGQGTLVTVSS
B15: IL6R65PMP11E9 (VHH)
VHH: EVQLVESGGGLVQPGGSLRLSCAASGTTFKINVMAWYRQAPGKGRELVAAIITGGTTTYADSVKGRFTISRDNAKNTLYLQMNSLRPEDTAVYYCAFVTTNSDYDLGRDYWGQGTLVTVSS
B16: IL6R65PMP12C8 (VHH)
VHH: EVQLVESGGGLVQPGGSLRLSCAASGTVFKINAMAWYRQAPGKGRELVAGLVSAGTANYADSVKGRFTISRDNAKNTLYLQMNSLRPEDTAVYYCAFVTTNSDYDLGRDYWGQGTLVTVSS
B17: IL6R65PMP13A4 (VHH)
VHH: EVQLVESGGGLVQPGGSLRLSCAASGTTFRLNVMAWYRQAPGKGRELVAAIITSGTTTYADSVKGRFTISRDNAKNTLYLQMNSLRPEDTAVYYCAFVTTNSDYDLGRDYWGQGTLVTVSS
B18: IL6R65PMP11F12 (VHH)
VHH: EVQLVESGGGLVQPGGSLRLSCAASGTTFRVNVMAWYRQAPGKGRELVAAIISGGSTTYADSVKGRFTISRDNAKNTLYLQMNSLRPEDTAVYYCAFVTTNSDYDLGRDYWGQGTLVTVSS
B19: IL6R65PMP11D3 (VHH)
VHH: EVQLVESGGGLVQPGGSLRLSCAASGSIFKLNVMAWYRQAPGKGRELVAGVITGGNTSYADSVKGRFTISRDNAKNTLYLQMNSLRPEDTAVYYCAFVTTNSDYDLGRDYWGQGTLVTVSS
B20: IL6R65PMP11F1 (VHH)
VHH: EVQLVESGGGLVQPGGTLRLSCAASGSTFKINVMAWYRQAPGKGRELVAGVITNGSTTYADSVKGRFTISRDNAKNTLYLQMNSLRPEDTAVYYCAFVTTNSDYDLGRDYWGQGTLVTVSS
B21: IL6R65PMP11B4 (VHH)
VHH: EVQLVESGGGLVQPGGSLRLSCAASGSIFKINVMAWYRQAPGKGRELVAAIINGGTTSYADSVKGRFTISRDNAKNTLYLQMNSLRPEDTAVYYCAFVTTNSDYDLGRDYWGQGTLVTVSS
B22: IL6R65PMP11E11 (VHH)
VHH: EVQLVESGGGLVQPGGSLRLSCAASGTTFKINVMAWYRQAPGKGRKLVAAIINNGNTTYADSVKGRFTISRDNAKNTLYLQMNSLRPEDTAVYYCAFVTTNSDYDLGRDYWGQGTLVTVSS
B23: IL6R65PMP13A2 (VHH)
VHH: EVQLVESGGGLVQPGGSLRLSCAASGTIFRVNVMAWYRQAPGKGRELVAAIITDGTTTYADSVKGRFTISRDNAKNTLYLQMNSLRPEDTAVYYCAFVTTNSDYDLGRDYWGQGTLVTVSS
B24: IL6R65PMP12E1 (VHH)
VHH: EVQLVESGGGLVQPGGSLRLSCAANGSVYKVNAMAWYRQAPGKGRELVAGIVTGGTSNYADSVKGRFTISRDNAKNTLYLQMNSLRPEDTAVYYCAFVTTNSDYDLGRDYWGQGTLVTVSS
B25: IL6R65PMP13A11 (VHH)
VHH: EVQLVESGGGLVQPGGSLRLSCAASGTVFKVNAMAWYRQAPGKGRELVAGVISAGSANYADSVKGRFTISRDNAKNTLYLQMNSLRPEDTAVYYCAFVTTNSDYDLGRDYWGQGTLVTVSS
B26: IL6R65PMP11C7 (VHH)
VHH: EVQLVESGGGLVQPGGSLRLSCAASGTIFKVNIMAWYRQAPGKGRELVAAIITSGTTTYADSVKGRFTISRDNAKNTLYLQMNSLRPEDTAVYYCAFVTTNSDYDLGRDYWGQGTLVTVSS
B27: IL6R65PMP11F3 (VHH)
VHH: EVQLVESGGGLVQPGGSLRLSCAASGTIFRINVMAWYRQAPGKGRELVAAIISGGSTTYADSVKGRFTISRDNAKNTLYLQMNSLRPEDTAVYYCAFVTTNSDYDLGRDYWGQGTLVTVSS
B28: IL6R65PMP11D11 (VHH)
VHH: EVQLVESGGGLVQPGGSLRLSCAASGSTFKINIMAWYRQAPGKGRELVAGVITGGNTNYADSVKGRFTISRDNAKNTLYLQMNSLRPEDTAVYYCAFVTTNSDYDLGRDYWGQGTLVTVSS
B29: IL6R65PMP11H10 (VHH)
VHH: EVQLVESGGGLVQPGGSLRLTCAASGTTFKVNVMAWYRQAPGKGRELVAAVINGGTTSYADSVKGRFTISRDNAKNTLYLQMNSLRPEDTAVYYCAFVTTNSDYDLGRDYWGQGTLVTVSS
B30: IL6R65PMP11D12 (VHH)
VHH: EVQLVESGGGLVQPGGSLRLSCAASGTIFKINIMAWYRQAPGKGRELVAAIINSGSTSYADSVKGRFTISRDNAKNTLYLQMNSLRPEDTAVYYCAFVTTNSDYDLGRDYWGQGTLVTVSS
B31: IL6R65PMP11H2 (VHH)
VHH: EVQLVESGGGLVQPGGSLRLSCAASGSIFKINVMAWYRQAPGKGRELVAAIINGGTTSYADSVKGRFTISRDNAKNTLYLQMNSLRPEDTAVYYCAFVTTNSDYDLGRDYWGQGTLVTVSS

Molecular target: T1, human IL6R
Experiment: SPR (Biacore), periplasmic extract
Description: Selection outputs were analyzed by picking individual colonies and growing them overnight in 1 ml 2×YT (Yeast Tryptone) medium+100 ug/ml Carbenicillin at 37 C. Nanobody containing periplasmic extracts were prepared, diluted 1/10 in PBS and subsequently tested for antigen binding in ELISA. Clones with the highest ELISA signals were sequenced and analyzed on Biacore. […] The off-rate of the best clone from the CDR3 library was 7×10e-4 s-1.

Point of comparison: B27, koff 0.00048 s⁻¹. Against it:
- B1 — 2.1-fold higher, 0.001 s⁻¹
- B2 — the same, 0.00048 s⁻¹
- B3 — within 1.5-fold, 0.00068 s⁻¹
- B4 — within 1.5-fold, 0.00068 s⁻¹
- B5 — within 1.5-fold, 0.00036 s⁻¹
- B6 — 1.7-fold higher, 0.0008 s⁻¹
- B7 — 1.9-fold higher, 0.00091 s⁻¹
- B8 — within 1.5-fold, 0.0005 s⁻¹
- B9 — 2.7-fold higher, 0.0013 s⁻¹
- B10 — 4-fold lower, 0.00012 s⁻¹
- B11 — 2.3-fold lower, 0.00021 s⁻¹
- B12 — 2.1-fold higher, 0.001 s⁻¹
- B13 — 1.5-fold lower, 0.00031 s⁻¹
- B14 — 2.1-fold lower, 0.00023 s⁻¹
- B15 — within 1.5-fold, 0.00035 s⁻¹
- B16 — within 1.5-fold, 0.00066 s⁻¹
- B17 — 1.5-fold higher, 0.00072 s⁻¹
- B18 — within 1.5-fold, 0.00067 s⁻¹
- B19 — 1.5-fold lower, 0.00031 s⁻¹
- B20 — within 1.5-fold, 0.00037 s⁻¹
- B21 — 1.7-fold lower, 0.00028 s⁻¹
- B22 — within 1.5-fold, 0.00049 s⁻¹
- B23 — within 1.5-fold, 0.00061 s⁻¹
- B24 — 1.8-fold lower, 0.00026 s⁻¹
- B25 — 1.7-fold higher, 0.00083 s⁻¹
- B26 — 1.8-fold higher, 0.00085 s⁻¹
- B28 — within 1.5-fold, 0.00039 s⁻¹
- B29 — within 1.5-fold, 0.00043 s⁻¹
- B30 — within 1.5-fold, 0.00058 s⁻¹
- B31 — 1.6-fold lower, 0.0003 s⁻¹
